Columns and labels:
Experiment in all cases: cross-linking; 1 mM BMH (cysteine-specific) added to living transfected HEK293T cells in PBS/5 mM EDTA, 1 hr at room temperature in the dark, stopped with DTT; lysates on 3-8% Tris-Acetate gels, western blot with anti-NC antibody
[1] = target: ccHex2-SP1-NC (HIV-1 NL4-3)
[2] = target: GCN4pAA-SP1-NC (HIV-1 NL4-3)
[3] = target: GCN4pII-SP1-NC (HIV-1 NL4-3)
[4] = target: CANC (N-terminally 3xHA-tagged CANC Gag fragment with the C-terminal SP2-p6 extension, from pCANC) (HIV-1 NL4-3)

Substance: ccHex2-SP1-NC
- stoichiometry N [1]: < 6

Substance: GCN4pAA-SP1-NC
- stoichiometry N [2]: < 6

Substance: GCN4pII-SP1-NC
- stoichiometry N [3]: < 6

Substance: CANC (N-terminally 3xHA-tagged CANC Gag fragment with the C-terminal SP2-p6 extension, from pCANC) (domain or fragment)
- stoichiometry N [4]: 8 to 10

Reference: paper PMC9908077
